Source: publication PMC4956256

How the values were obtained:
[1] = target: soluble CD4 receptor ligand, CD4-Fc (sCD4) (UniProt P01730); assay: SPR; BIAcore 3000; about 200 RU of sCD4 immobilised directly on a CM5 chip by amine coupling; varying concentrations of gp120 injected at 100 ul/min; 25°C; PBS + 0.1% BSA; 1:1 Langmuir fit
[2] = target: TV1.C gp120 monomer (HIV-1 subtype C, strain TV1.C); assay: SEC + other: SDS-PAGE; purified TV1.C gp120; SDS-PAGE under reduced and non-reduced conditions; SEC-HPLC under non-reduced and reduced (otherwise native) conditions

1086.C gp120 monomer (natural protein)
Kd [1]: 26.6 nM

TV1.C gp120 monomer (natural protein)
Kd [1]: 148 nM
stoichiometry N [2]: 2
